# Assay results reported in PMC6238398, “The crystal structure of Staufen1 in complex with a physiological RNA sheds light on substrate selectivity” (Life Science Alliance, 2018).
# Numbering of substitutions follows the chain as printed.
# T1: dStau dsRBD3 backbone mutant (Drosophila melanogaster, UniProt P25159 570-786, H606A;K608A;K628E;K629A)
# T1 sequence: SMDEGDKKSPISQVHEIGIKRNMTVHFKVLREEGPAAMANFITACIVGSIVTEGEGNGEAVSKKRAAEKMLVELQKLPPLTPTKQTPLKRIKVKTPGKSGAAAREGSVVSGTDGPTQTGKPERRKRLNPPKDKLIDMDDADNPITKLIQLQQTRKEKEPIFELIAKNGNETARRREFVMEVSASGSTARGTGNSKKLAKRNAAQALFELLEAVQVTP
# T2: dStau dsRBD4 backbone mutant (Drosophila melanogaster, UniProt P25159 570-786, R742A;R744A;K764E;K765A;K768A)
# T2 sequence: T1 sequence with A37H, A39K, E59K, A60K, R173A, R175A, K195E, K196A, K199A
# T3: dStau S581A Q718A (Drosophila melanogaster, UniProt P25159 570-786, S581A;Q718A)
# T3 sequence: T1 sequence with S12A, A37H, A39K, E59K, A60K, Q149A
# B1: ARF1 SBS (dsRNA)
# RNA 1: UGAGUGCCAGAAGCUGCCUC
# RNA 2: GAGGCAGUUUCUGGUACUCA
# B2: bcd III (structured_RNA)
# RNA: CGCUAUUCGCCUUAGAUGUAUCUGGGUGGCUGCUCCACUAAAGCCCGGGAAUAUGCAACCAGUUACAUUUGAGGCCAUUUGGGCUUAAGCG
# B3: human Staufen1 full-length (natural protein, UniProt O95793 1-577, looked up)
# chain: MSQVQVQVQNPSAALSGSQILNKNQSLLSQPLMSIPSTTSSLPSENAGRPIQNSALPSASITSTSAAAESITPTVELNALCMKLGKKPMYKPVDPYSRMQSTYNYNMRGGAYPPRYFYPFPVPPLLYQVELSVGGQQFNGKGKTRQAAKHDAAAKALRILQNEPLPERLEVNGRESEEENLNKSEISQVFEIALKRNLPVNFEVARESGPPHMKNFVTKVSVGEFVGEGEGKSKKISKKNAAIAVLEELKKLPPLPAVERVKPRIKKKTKPIVKPQTSPEYGQGINPISRLAQIQQAKKEKEPEYTLLTERGLPRRREFVMQVKVGNHTAEGTGTNKKVAKRNAAENMLEILGFKVPQAQPTKPALKSEEKTPIKKPGDGRKVTFFEPGSGDENGTSNKEDEFRMPYLSHQQLPAGILPMVPEVAQAVGVSQGHHTKDFTRAAPNPAKATVTAMIARELLYGGTSPTAETILKNNISSGHVPHGPLTRPSEQLDYLSRVQGFQVEYKDFPKNNKNEFVSLINCSSQPPLISHGIGKDVESCHDMAALNILKLLSELDQQSTEMPRTGNGPMSVCGRC
# notes: human Staufen1 (hStau1), GenBank AAD17531.1, codon optimized; full-length protein; the truncation 182-577 implies a length of 577 aa; Constructs carried either an N-terminal GST tag or a His tag; The His tag was removed by TEV; the GST tag was either kept (elution with glutathione) or cleaved by TEV; also called hStau1 FL; hStau1
# B4: hStau1 aa 182-577 (N-terminal deletion removing dsRBD2) (domain or fragment, human, UniProt O95793 182-577, looked up)
# chain: NKSEISQVFEIALKRNLPVNFEVARESGPPHMKNFVTKVSVGEFVGEGEGKSKKISKKNAAIAVLEELKKLPPLPAVERVKPRIKKKTKPIVKPQTSPEYGQGINPISRLAQIQQAKKEKEPEYTLLTERGLPRRREFVMQVKVGNHTAEGTGTNKKVAKRNAAENMLEILGFKVPQAQPTKPALKSEEKTPIKKPGDGRKVTFFEPGSGDENGTSNKEDEFRMPYLSHQQLPAGILPMVPEVAQAVGVSQGHHTKDFTRAAPNPAKATVTAMIARELLYGGTSPTAETILKNNISSGHVPHGPLTRPSEQLDYLSRVQGFQVEYKDFPKNNKNEFVSLINCSSQPPLISHGIGKDVESCHDMAALNILKLLSELDQQSTEMPRTGNGPMSVCGRC
# notes: human Staufen1 (hStau1), GenBank AAD17531.1, aa 182-577 (dsRBD3, dsRBD4, TBD, SSM, dsRBD5); GST was kept or cleaved; also called hStau1^182-577
# B5: dsAU (dsRNA)
# RNA 1: UAUUAUAUAAAUUAUAAAAU
# RNA 2: AUUUUAUAAUUUAUAUAAUA
# B6: ssARF1 (sense strand) (ssRNA)
# RNA: UGAGUGCCAGAAGCUGCCUC
# How the values were obtained:
# [1] = target: T4, hStau1 FL (Homo sapiens, UniProt O95793 1-577); test: fluorescence anisotropy; FA: 10 nM 5'-FAM RNA, 20 mM Hepes pH 7.5, 150 mM KCl, RT (19-21 C); EMSA: 1 uM RNA, same buffer, 45 min on ice; details: protein: recombinant, tags: tag removed or His/GST not specified, chain copies: 2
# [2] = target: GST-hStau1 dsRBD3-4 (Homo sapiens, UniProt O95793 182-360); test: as above; details: protein: recombinant; tags: N-terminal GST; label: 5'-6-FAM on sense strand; blunt, two G-U wobbles
# [3] = target: hStau1 deltaN (dsRBD2 removed) (Homo sapiens, UniProt O95793 182-577); test: as above; details: protein: recombinant; label: 5'-6-FAM on sense strand; blunt, two G-U wobbles
# [4] = target: hStau1 deltaC (SSM and dsRBD5 removed) (Homo sapiens, UniProt O95793 1-360); test: as above; details: protein: recombinant; label: 5'-6-FAM on sense strand; blunt, two G-U wobbles
# [5] = target: hStau1 dsRBD3-4 (Homo sapiens, UniProt O95793 182-360); test: as above; details: protein: recombinant; tags: untagged; chain copies: 2; label: 5'-6-FAM on sense strand; blunt, two G-U wobbles
# [6] = target: GST-hStau1 dsRBD3 (Homo sapiens, UniProt O95793 182-255); test: as above; details: protein: recombinant; tags: N-terminal GST; label: 5'-6-FAM on sense strand; blunt, two G-U wobbles
# [7] = target: GST-hStau1 dsRBD4 (Homo sapiens, UniProt O95793 284-358); test: as above; details: protein: recombinant; tags: N-terminal GST; label: 5'-6-FAM on sense strand; blunt, two G-U wobbles
# [8] = target: hStau1 dsRBD4 backbone mutant (Homo sapiens, UniProt O95793 182-360, R315A;R317A;K337E;K338A;K341A); test: as above; details: protein: recombinant; label: 5'-6-FAM on sense strand; blunt, two G-U wobbles
# [9] = target: hStau1 dsRBD3 backbone mutant (Homo sapiens, UniProt O95793 182-360, H212A;K214A;K234E;K235A;K238A); test: as above; details: protein: recombinant; label: 5'-6-FAM on sense strand; blunt, two G-U wobbles
# [10] = target: hStau1 base-contact mutant (Homo sapiens, UniProt O95793 182-360, S187A;P211A;Q293A); test: as above; details: protein: recombinant, blunt
# hStau1 base-contact mutant, sequence (O95793 182-360 S187A/P211A/Q293A): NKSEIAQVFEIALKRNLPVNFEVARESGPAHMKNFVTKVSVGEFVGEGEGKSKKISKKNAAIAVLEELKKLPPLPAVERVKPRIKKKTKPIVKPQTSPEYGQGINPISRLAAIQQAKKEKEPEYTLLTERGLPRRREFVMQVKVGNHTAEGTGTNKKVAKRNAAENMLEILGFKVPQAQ
# [11] = target: hStau1 dsRBD3-4 short linker (Homo sapiens, UniProt O95793 182-253+=GSSGSGSS+284-360, internal_change); test: as above; details: protein: recombinant; label: 5'-6-FAM on sense strand; blunt, two G-U wobbles
# [12] = target: hStau1 dsRBD3-4 linker charge mutant (Homo sapiens, UniProt O95793 182-360, K266A;K267E;K268A;K270A); test: as above; details: protein: recombinant; label: 5'-6-FAM on sense strand; blunt, two G-U wobbles
# [13] = target: hStau1 dsRBD3-4 interface mutant (Homo sapiens, UniProt O95793 182-360, N197A;R342A); test: fluorescence anisotropy; no effect on affinity vs wt; FA: 10 nM 5'-FAM RNA, 20 mM Hepes pH 7.5, 150 mM KCl, RT (19-21 C); EMSA: 1 uM RNA, same buffer, 45 min on ice; details: protein: recombinant; label: 5'-6-FAM on sense strand; blunt, two G-U wobbles
# hStau1 dsRBD3-4 interface mutant, sequence (O95793 182-360 N197A/R342A): as the sequence (O95793 182-360 S187A/P211A/Q293A) above, with A6S, N16A, A30P, A112Q, R161A counted along it
# [14] = target: T1, dStau dsRBD3 backbone mutant; test: fluorescence anisotropy; FA: 10 nM 5'-FAM RNA, 20 mM Hepes pH 7.5, 150 mM KCl, RT (19-21 C); EMSA: 1 uM RNA, same buffer, 45 min on ice; details: protein: recombinant; label: 5'-6-FAM; hairpin
# [15] = target: T2, dStau dsRBD4 backbone mutant; test: as above; details: protein: recombinant; label: 5'-6-FAM; hairpin
# [16] = target: T3, dStau S581A Q718A; test: as above; details: protein: recombinant; label: 5'-6-FAM; hairpin
# [17] = target: the molecule itself; test: SEC + SEC-MALS; apo proteins on Superdex 200 Increase 10/300 GL with MALLS detector; 20 mM Tris-HCl pH 7.5, 150 mM KCl, RT; 200 ug FL, 350 ug hStau1 182-577 injected
# [18] = target: T4, hStau1 FL; test: fluorescence anisotropy; FA: 10 nM 5'-FAM RNA, 20 mM Hepes pH 7.5, 150 mM KCl, RT (19-21 C); EMSA: 1 uM RNA, same buffer, 45 min on ice; details: protein: recombinant; tags: tag removed or His/GST not specified; chain copies: 2; label: 5'-6-FAM; blunt
binder,measurement,setting,value
B1,Kd,"[1]; label: 5'-6-FAM on sense strand, blunt, two G-U wobbles",6 ± 1 nM
same,Kd,[2],9 ± 2 nM
same,Kd,[3],9 ± 3 nM
same,Kd,[4],10 ± 2 nM
same,Kd,[5],14 ± 4 nM
same,binding signal,[6],~10 fold reduction vs tandem dsRBD3-4
same,binding signal,[7],~1000 fold reduction vs tandem dsRBD3-4
same,binding signal,[8],~4.5 fold reduction vs wt
same,binding signal,[9],~8 fold reduction vs wt
same,binding signal,"[10]; label: 5'-6-FAM on sense strand, two G-U wobbles",~3 fold reduction vs wt
same,binding signal,[11],~8 fold reduction vs wt
same,binding signal,[12],~3 fold reduction vs wt
same,binding result,[13],binds
B2,binding signal,[14],~10 fold reduction vs wt (almost)
same,binding signal,[15],< 3 fold reduction vs wt
same,binding signal,[16],~3.5 fold reduction vs wt
B3,stoichiometry N,[17],2
B4,stoichiometry N,[17],2
B5,binding signal,[10]; label: 5'-6-FAM,~1.5 fold reduction vs wt on dsAU
same,binding signal,[18],~4 fold reduction vs ARF1 SBS
B6,Kd,"[1]; label: 5'-6-FAM, single strand",96 ± 27 nM
